T1: full-length human APLNR (amino acids 1-380 of accession number NP-005152.1) (human, UniProt P35414 1-380)
T1 sequence (looked up): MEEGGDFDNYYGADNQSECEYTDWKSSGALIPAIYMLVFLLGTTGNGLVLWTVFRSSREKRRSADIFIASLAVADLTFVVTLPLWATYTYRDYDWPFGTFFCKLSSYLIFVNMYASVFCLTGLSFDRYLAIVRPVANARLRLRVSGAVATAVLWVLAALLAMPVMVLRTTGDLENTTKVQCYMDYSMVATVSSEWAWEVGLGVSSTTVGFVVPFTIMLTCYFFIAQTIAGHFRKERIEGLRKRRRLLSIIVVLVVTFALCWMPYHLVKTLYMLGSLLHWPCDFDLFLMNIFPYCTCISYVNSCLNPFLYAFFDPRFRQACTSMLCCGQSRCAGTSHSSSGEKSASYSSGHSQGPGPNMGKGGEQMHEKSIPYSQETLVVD

B1: Apelin-13 + 5G (peptide)
peptide: QRPRLSHKGPMPFGGGGG
B2: Apelin66-75 (peptide)
peptide: RPRLSHKGPM
B3: Apelin66-76 (peptide)
peptide: RPRLSHKGPMP
B4: Apelin67-76 (peptide)
peptide: PRLSHKGPMP
B5: Apelin67-75 (peptide)
peptide: PRLSHKGPM
B6: Apelin-11 (peptide)
peptide: PRLSHKGPMPF

Each binder was assayed against T1, full-length human APLNR (amino acids …) (assay: cell-based or functional assay).
For B1, the “EC50 (M), CRE assay (cAMP reporter) in HEK293/CRE-luc/hAPLNR cells” value (shortened to “EC50 (M) … in HEK293/CRE-luc/hAPLNR cells”) was 1.47e-10 M.
B2 was tested, and the “EC50 (M) … in HEK293/CRE-luc/hAPLNR cells” value was 2.17e-12 M.
B3 was tested, and the “EC50 (M) … in HEK293/CRE-luc/hAPLNR cells” value was 5.19e-12 M.
B4 was tested, and the “EC50 (M) … in HEK293/CRE-luc/hAPLNR cells” value was 1.14e-13 M.
B5 was tested, and the “EC50 (M) … in HEK293/CRE-luc/hAPLNR cells” value was 3.74e-07 M.
For B6, the “EC50 (M) … in HEK293/CRE-luc/hAPLNR cells” value was 4.38e-10 M.
